Common to all, as to test: cell-based or functional assay
Test [1] concerns the target human GLP-1R (SNAP-GLP-1R expressed in HEK293 cells) (human) (UniProt P43220).
The target in test [2] is human glucagon receptor (human) (UniProt P47871).
Test [3] deals with T1, human GIP receptor (human) (UniProt P48546).
T1 sequence (looked up): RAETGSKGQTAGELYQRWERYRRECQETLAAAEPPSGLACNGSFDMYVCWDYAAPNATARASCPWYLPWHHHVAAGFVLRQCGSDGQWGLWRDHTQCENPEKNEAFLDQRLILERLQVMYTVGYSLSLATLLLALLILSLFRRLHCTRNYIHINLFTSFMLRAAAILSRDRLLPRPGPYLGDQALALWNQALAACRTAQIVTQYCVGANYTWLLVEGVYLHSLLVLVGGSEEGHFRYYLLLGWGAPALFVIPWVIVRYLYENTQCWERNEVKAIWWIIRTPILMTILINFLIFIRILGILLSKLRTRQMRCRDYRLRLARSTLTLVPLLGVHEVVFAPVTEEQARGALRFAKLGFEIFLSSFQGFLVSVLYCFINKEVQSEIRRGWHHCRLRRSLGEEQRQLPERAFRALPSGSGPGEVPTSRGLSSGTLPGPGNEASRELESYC

The target in another test is hGLP-1R (Homo sapiens, UniProt P43220).
Sequence of hGLP-1R (P43220 24-463): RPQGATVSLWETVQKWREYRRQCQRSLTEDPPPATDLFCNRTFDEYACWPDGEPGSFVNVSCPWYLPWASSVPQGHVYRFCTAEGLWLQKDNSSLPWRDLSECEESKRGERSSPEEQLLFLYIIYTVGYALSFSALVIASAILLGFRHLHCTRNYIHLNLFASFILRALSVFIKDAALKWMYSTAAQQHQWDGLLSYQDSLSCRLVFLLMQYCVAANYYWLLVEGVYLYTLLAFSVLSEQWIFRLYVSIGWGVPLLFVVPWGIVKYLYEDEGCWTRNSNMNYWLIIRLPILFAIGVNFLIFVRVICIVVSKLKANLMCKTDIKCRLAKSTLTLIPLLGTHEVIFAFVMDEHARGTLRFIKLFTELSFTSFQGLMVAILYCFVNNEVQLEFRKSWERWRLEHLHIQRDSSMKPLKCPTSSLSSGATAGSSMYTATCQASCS

Experimental findings from patent US20240270821A1, “GIP/GLP1/GCG TRI-RECEPTOR AGONISTS AND USES THEREOF” (priority 2023, published 2024) are described below.

Sequence of human glucagon receptor (human) (P47871 26-477): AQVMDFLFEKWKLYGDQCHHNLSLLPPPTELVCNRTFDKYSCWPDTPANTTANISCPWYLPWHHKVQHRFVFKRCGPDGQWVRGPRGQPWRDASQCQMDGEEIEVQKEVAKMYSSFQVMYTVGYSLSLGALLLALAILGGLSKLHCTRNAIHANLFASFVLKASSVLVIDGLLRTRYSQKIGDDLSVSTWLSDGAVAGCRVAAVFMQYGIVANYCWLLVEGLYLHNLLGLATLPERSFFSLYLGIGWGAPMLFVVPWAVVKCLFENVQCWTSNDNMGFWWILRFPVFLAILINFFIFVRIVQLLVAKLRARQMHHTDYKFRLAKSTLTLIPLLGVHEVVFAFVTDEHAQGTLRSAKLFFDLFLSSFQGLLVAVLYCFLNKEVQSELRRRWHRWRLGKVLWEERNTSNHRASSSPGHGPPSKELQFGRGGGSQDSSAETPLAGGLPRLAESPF
Sequence of human GLP-1R (SNAP-GLP-1R expressed in HEK293 cells) (human) (P43220 24-463): as the sequence (P43220 24-463) above

B1: Example 1026 (peptide)
chain: YXQGTFTSDXSQXLDXKAQXQFIEXLIEGGPSSGEPPPSGSEE
modifications: non-natural residues, lipidated Lys, C-terminal amide; synthetic construct; SITE 2: note = 2-Aminoisobutyric Acid; SITE 10: note = 3-(4-Pyridyl)-L-alanine; SITE 13: note = alpha-methyl-leucine; SITE 16: note = L-ornithine; SITE 17: note = Lysine is chemically modified through conjugation of the epsilon-amino group of the Lysine side chain with (gamma-Gl)
Take B1: in test [1], the GLP1R Internalization EC50 came out at 47.4 nM and the Internalization % TOP is 80%. In test [2], this molecule registered a Relative cAMP EC50 of 6.32 nM and a cAMP Rel EC50, nM (1% HSA) of 2080 nM. Besides, in test [3], the Relative cAMP EC50 was determined as 0.308 nM and the cAMP Rel EC50, nM (1% HSA) was 61.3 nM. Also, in the test with hGLP-1R, the Relative cAMP EC50 was found to be 1.77 nM and the cAMP Rel EC50, nM (1% HSA) amounted to 299 nM.

B2: Example 686 (peptide)
chain: YXQGTXTSDXSIXLDXKAQXXFIEXLIEGGPSSGEPPPETE
modifications: synthetic construct; SITE 2: note = 2-Aminoisobutyric Acid; SITE 6: note = alpha-methyl-2-fluoro-L-phenylalanine; SITE 10: note = 3-(4-Pyridyl)-L-alanine; SITE 13: note = alpha-methyl-leucine; SITE 16: note = L-ornithine; SITE 17: note = Lysine is chemically modified through conjugation of the epsil
In test [1], B2 returned a GLP1R Internalization EC50 of 33.2 nM. Moreover, in test [1], the Internalization % TOP was 101%. Moreover, the cAMP Rel EC50 (1% HSA) is 169 nM in test [2], 0.542 nM in test [3] and 19.1 nM with hGLP-1R.

B3: Example 115 (peptide)
chain: YXQGTFTSDXSXXLDKKAQXAFIEWLLEGGPSSGEPPPSGE
modifications: synthetic construct; SITE 2: note = 2-Aminoisobutyric Acid; SITE 10: note = 3-(4-Pyridyl)-L-alanine; SITE 12: note = L-ornithine; SITE 13: note = alpha-methyl-leucine; SITE 17: note = Lysine is chemically modified through conjugation of the epsilon-amino group of the Lysine side chain with (2-[2-(2-
As for B3, in test [1], the GLP1R Internalization EC50 is 255 nM. For the same molecule, in test [1], the Internalization % TOP came to 56.5%. The Relative cAMP EC50 was determined as 10.6 nM in test [2], 0.457 nM in test [3] and 7.6 nM with hGLP-1R. Moreover, the cAMP Rel EC50, nM (in the presence of 1% HSA) in test [2] was found to be 2210 nM; in test [3] it was 73.9 nM; with hGLP-1R it was 1460 nM.

B4: Example 117 (peptide)
chain: YXQGTFTSDFSXXLDKKAQXAFIEYLLEAGPSSGEPPPSGE
modifications: synthetic construct; SITE 2: note = 2-Aminoisobutyric Acid; SITE 12: note = L-ornithine; SITE 13: note = alpha-methyl-leucine; SITE 17: note = Lysine is chemically modified through conjugation of the epsilon-amino group of the Lysine side chain with (2-[2-(2-Amino-ethoxy)-ethoxy]-acetyl)2-(gamma-Glu)
B4 showed a GLP1R Internalization EC50 in test [1] of 45.5 nM. The molecule also registered an Internalization % TOP in test [1] of 51%. In addition, the Relative cAMP EC50 in test [2] turned out to be 4.75 nM; in test [3] it was 0.267 nM; in the test with hGLP-1R it was 6.4 nM. The cAMP Rel EC50, nM (in the presence of 1% HSA) was 867 nM in test [2], 29.9 nM in test [3] and 524 nM with hGLP-1R.

B5: Example 116 (peptide)
chain: YXQGTFTSDFSXXLDKKAQXAFIEYLLEAGPSSGEPPPSEG
modifications: synthetic construct; SITE 2: note = 2-Aminoisobutyric Acid; SITE 12: note = L-ornithine; SITE 13: note = alpha-methyl-leucine; SITE 17: note = Lysine is chemically modified through conjugation of the epsilon-amino group of the Lysine side chain with (2-[2-(2-Amino-ethoxy)-ethoxy]-acetyl)2-(gamma-Glu)
B5: in test [1], the GLP1R Internalization EC50 is 80.7 nM and the Internalization % TOP was found to be 46.2%. Further, in test [2], the Relative cAMP EC50 is 3.96 nM and the cAMP Rel EC50, nM (in the presence of 1% HSA) was found to be 882 nM. Besides, in test [3], the Relative cAMP EC50 is 0.382 nM and the cAMP Rel EC50, nM (in the presence of 1% HSA) was found to be 40.4 nM. In addition, in the test with hGLP-1R, the Relative cAMP EC50 turned out to be 7.83 nM and the cAMP Rel EC50, nM (in the presence of 1% HSA) amounted to 401 nM.

B6: Example 362 (peptide)
chain: YXQGTFTSDYSQXLDKKAQXAFIEYLLEGGESSGAPPPSGS
modifications: synthetic construct; SITE 2: note = 2-Aminoisobutyric Acid; SITE 13: note = alpha-methyl-leucine; SITE 17: note = Lysine is chemically modified through conjugation of the epsilon-amino group of the Lysine side chain with (2-[2-(2-Amino-ethoxy)-ethoxy]-acetyl)-(gamma-Glu)-CO-(CH2) 16-CO2H; SITE 20: n
In test [1], B6 gave a GLP1R Internalization EC50 of 22.8 nM and an Internalization % TOP of 77.5%. In test [2], this molecule showed a Relative cAMP EC50 of 6.04 nM and a cAMP Rel EC50, nM (1% HSA) of 1450 nM. In test [3], this molecule registered a Relative cAMP EC50 of 0.262 nM and a cAMP Rel EC50, nM (1% HSA) of 38.7 nM. In the test with hGLP-1R, this molecule had a Relative cAMP EC50 of 1.77 nM and a cAMP Rel EC50, nM (1% HSA) of 450 nM.

B7: Example 125 (peptide)
chain: YXQGTFTSDFSXXLDKKAQXAFIEWLLEGGESSGAPPPEGS
modifications: synthetic construct; SITE 2: note = 2-Aminoisobutyric Acid; SITE 12: note = L-ornithine; SITE 13: note = alpha-methyl-leucine; SITE 17: note = Lysine is chemically modified through conjugation of the epsilon-amino group of the Lysine side chain with (2-[2-(2-Amino-ethoxy)-ethoxy]-acetyl)-(gamma-Glu)
In test [1], B7 yielded a GLP1R Internalization EC50 of 86.4 nM and an Internalization % TOP of 42.6%. Further, in test [2], the Relative cAMP EC50 turned out to be 3.97 nM and the cAMP Rel EC50, nM (in the presence of 1% HSA) was 901 nM. In test [3], the Relative cAMP EC50 amounted to 0.503 nM and the cAMP Rel EC50, nM (in the presence of 1% HSA) stood at 67.8 nM. Also, in the test with hGLP-1R, the Relative cAMP EC50 was 4.12 nM and the cAMP Rel EC50, nM (in the presence of 1% HSA) was found to be 1050 nM.

B8: Example 114 (peptide)
chain: YXQGTFTSDXSRXLDKKAQXAFIEYLLEXGPSSGAPPPSGE
modifications: synthetic construct; SITE 2: note = 2-Aminoisobutyric Acid; SITE 10: note = 3-(4-Pyridyl)-L-alanine; SITE 13: note = alpha-methyl-leucine; SITE 17: note = Lysine is chemically modified through conjugation of the epsilon-amino group of the Lysine side chain with (2-[2-(2-Amino-ethoxy)-ethoxy]-acetyl)
In test [1], B8 yielded a GLP1R Internalization EC50 of 47.2 nM. For the same molecule, in test [1], the Internalization % TOP came to 62.9%. Besides, the cAMP Rel EC50, nM (in the presence of 1% HSA) in test [2] came out at 1120 nM; in test [3], 19.6 nM; with hGLP-1R it was 1370 nM.

B9: Example 121 (peptide)
chain: YXQGTFTSDFSXXLDKKAQXAFIEWLLEGGPSSGAPPPEGS
modifications: synthetic construct; SITE 2: note = 2-Aminoisobutyric Acid; SITE 12: note = L-ornithine; SITE 13: note = alpha-methyl-leucine; SITE 17: note = Lysine is chemically modified through conjugation of the epsilon-amino group of the Lysine side chain with (2-[2-(2-Amino-ethoxy)-ethoxy]-acetyl)-(gamma-Glu)
As for B9, in test [1], the GLP1R Internalization EC50 came out at 38.1 nM and the Internalization % TOP worked out at 46.3%. For the same molecule, in test [2], the Relative cAMP EC50 is 4.89 nM and the cAMP Rel EC50, nM (in the presence of 1% HSA) was 442 nM. Further, in test [3], the Relative cAMP EC50 amounted to 0.172 nM and the cAMP Rel EC50, nM (in the presence of 1% HSA) was determined as 24.6 nM. Moreover, in the test with hGLP-1R, the Relative cAMP EC50 stood at 2.38 nM and the cAMP Rel EC50, nM (in the presence of 1% HSA) is 348 nM.
